Measured values from patent US9988424 (DUKE UNIVERSITY, dated 2018).
Numbering of substitutions follows the chain as printed.

Assays:
[1] = molecular target: T1, J08 A.92RW020V1V2/N156QN160Q (HIV-1); test: ELISA, mAb 0.001-100 ug/ml on coated V1V2 scaffold, OD450
T1 construct: also called J08 A.92RW020VV1V2/N156QN160Q

gp70 B.HXB2/BALV1V2 = molecular target: T2, gp70 B.HXB2/BALV1V2 (murine leukemia virus; HIV-1); test: as above
T2 chain: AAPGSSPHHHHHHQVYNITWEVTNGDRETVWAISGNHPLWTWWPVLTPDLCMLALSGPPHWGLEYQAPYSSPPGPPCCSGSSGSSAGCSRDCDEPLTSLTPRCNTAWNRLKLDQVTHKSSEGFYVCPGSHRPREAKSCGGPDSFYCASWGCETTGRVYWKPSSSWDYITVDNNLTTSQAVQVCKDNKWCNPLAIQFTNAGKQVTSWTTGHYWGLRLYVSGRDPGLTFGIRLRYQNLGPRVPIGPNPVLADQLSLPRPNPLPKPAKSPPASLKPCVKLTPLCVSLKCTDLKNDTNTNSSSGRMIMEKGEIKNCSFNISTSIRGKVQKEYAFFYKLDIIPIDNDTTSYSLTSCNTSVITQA

[2] = molecular target: T3, gp70 B.HXB2/BALV1V2/N156QN160Q (murine leukemia virus; HIV-1); test: as above
T3 chain: T2 chain with N311Q, N315Q

J08 B.HXB2/BALV1V2 = molecular target: T4, J08 B.HXB2/BALV1V2 (HIV-1); test: as above
T4 construct: also called J08 B.HXB/BAL V1V2
T4 chain: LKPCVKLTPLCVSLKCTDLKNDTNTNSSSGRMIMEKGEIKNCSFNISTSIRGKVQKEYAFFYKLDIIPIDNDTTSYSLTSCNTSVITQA

[3] = molecular target: T5, J08 B.HXB2/BALV1V2N156QN160Q (HIV-1); test: as above
T5 chain: T4 chain with N41Q, N45Q

C.1086 gp140 = molecular target: T6, C.1086 gp140; test: ELISA, OD405
T6 construct: also called C.1086gp140C

A.9004SS V1/V2 tags = molecular target: T7, A.9004SS V1/V2 tags; test: ELISA, OD405 at 10 ug/ml
T7 V1V2 tags construct: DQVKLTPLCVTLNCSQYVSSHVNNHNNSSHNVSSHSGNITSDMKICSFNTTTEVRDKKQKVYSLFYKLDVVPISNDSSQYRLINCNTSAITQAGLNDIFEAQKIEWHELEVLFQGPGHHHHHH

AE.con gp140CF = test: ELISA, OD405 at 10 ug/ml
B.62357 gp140C = molecular target: T8, B.62357 gp140C; test: ELISA, OD405 at 10 ug/ml
T8 construct: also called B.62357 140C

B.63521_V1/V2 tags = test: ELISA, OD405 at 10 ug/ml
B.Case A2 V1/V2 tags = test: ELISA, OD405 at 10 ug/ml
D.9009SA V1/V2 tags = test: ELISA, OD405 at 10 ug/ml
G.con gp140CF = test: ELISA, OD405 at 10 ug/ml
AE.A244 gp120 delta 11 = molecular target: T9, AE.A244 gp120 delta 11 (HIV-1); test: ELISA, OD405 at 10 ug/ml
T9 construct: also called E.A244gp120Δ11; AE.A244 Δ11 gp120

C.CAP206 gp140CF.12 = C.CAP206 gp140CF.12 (HIV-1); test: ELISA, OD405 at 10 ug/ml
gp70 B.CaseA2 V1/V2 = molecular target: T10, gp70 B.CaseA2 V1/V2 (HIV-1 V1V2 on murine leukemia virus gp70); test: ELISA, OD405 at 10 ug/ml
T10 construct: also called B.gp70CaseA2 V1/V2; gp70 B.CaseAV1V2
T10 chain: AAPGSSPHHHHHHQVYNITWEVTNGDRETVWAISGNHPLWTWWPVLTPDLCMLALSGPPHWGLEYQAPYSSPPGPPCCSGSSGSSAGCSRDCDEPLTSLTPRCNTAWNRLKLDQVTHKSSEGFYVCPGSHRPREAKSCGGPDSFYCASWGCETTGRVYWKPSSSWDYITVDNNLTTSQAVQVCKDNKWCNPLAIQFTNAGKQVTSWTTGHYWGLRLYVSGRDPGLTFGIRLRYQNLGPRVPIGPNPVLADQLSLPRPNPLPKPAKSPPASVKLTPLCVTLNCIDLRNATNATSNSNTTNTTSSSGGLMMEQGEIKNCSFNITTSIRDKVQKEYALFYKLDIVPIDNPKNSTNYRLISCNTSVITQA

A.Q23 V1V2 tags = A.Q23 V1V2 tags (HIV-1); test: ELISA, OD405 at 10 ug/ml
AE.97CNG2XF gp140CF = molecular target: T11, AE.97CNG2XF gp140CF (HIV-1); test: ELISA, OD405 at 10 ug/ml
T11 construct: also called E.97CNGX2F gp140CF

B.9021 gp140C = B.9021 gp140C (HIV-1); test: ELISA, OD405 at 10 ug/ml

B1: CH59 (antibody, V domains shown)
VH: EVQLVESGGGLVQPGRSLRLSCAASGFTFDDGAMHWVRQAPGKGLEWVSGISWNSNIIAYADSVKGRFTISRDNAKNSLYLEMNSLRVEDTALYYCAKDSPRGELPLNYWGQGTLVTVSS
VL: SYELTQPPSVSVSPGQTARITCSGDALPKNYAYWYQQKSGQAPVLVIYEDSKRPSGIPERFSGSSSGTMATLTISGAQVEDEADYYCYSTDSSGNHRVFGGGTKLTVL
notes: also called mAb CH59
- binding result [1]: no binding (tested: 100 ug/ml)
- binding result (gp70 B.HXB2/BALV1V2): no binding (tested: 100 ug/ml)
- binding result [2]: no binding (tested: 100 ug/ml)
- binding result (J08 B.HXB2/BALV1V2): no binding (tested: 100 ug/ml)
- binding result [3]: no binding (tested: 100 ug/ml)

B2: CH58 reverted unmutated ancestor antibody (antibody, V domains shown)
VH: EVQLVQSGAEVKKPGESLKISCKGSGYSFTSYWIGWVRQMPGKGLEWMGIIYPGDSDTRYSPSFQGQVTISADKSISTAYLQWSSLKASDTAMYYCARLGGRYYYDSSGYYYFDYWGQGTLVTVSS
VL: NFMLTQPHSVSESPGKTVTISCTRSSGSIASNYVQWYQQRPGSSPTTVIYEDNQRPSGVPDRFSGSIDSSSNSASLTISGLKTEDEADYYCQSYDSSSWVFGGGTKLTVL
notes: also called CH58 RUA; CH58_RUA
- binding result (C.1086 gp140): no binding (tested: 10 ug/ml)

B3: PG9 reverted unmutated ancestor antibody (antibody, V domains shown)
VH: QVQLVESGGGVVQPGRSLRLSCAASGFTFSSYGMHWVRQAPGKGLEWVAVISYDGSNKYYADSVKGRFTISRDNSKNTLYLQMNSLRAEDTAVYYCAREAGGPDYRNGYNYYDFWSGYYNYYYMDVWGKGTTVTVSS
VL: QSALTQPASVSGSPGQSITISCTGTSSDVGSYNLVSWYQQHPGKAPKLMIYEVSKRPSGVSNRFSGSKSGNTASLTISGLQAEDEADYYCCSLTSTRRWVFGGGTKLTVL
notes: also called PG9 RUA; PG9_RUA
- binding result (A.9004SS V1/V2 tags): no binding (tested: 10 ug/ml)
- binding result (AE.con gp140CF): no binding (tested: 10 ug/ml)
- binding result (B.62357 gp140C): no binding (tested: 10 ug/ml)
- binding result (B.63521_V1/V2 tags): no binding (tested: 10 ug/ml)
- binding result (B.Case A2 V1/V2 tags): no binding (tested: 10 ug/ml)
- binding result (D.9009SA V1/V2 tags): no binding (tested: 10 ug/ml)
- binding result (G.con gp140CF): no binding (tested: 10 ug/ml)
- binding result (AE.A244 gp120 delta 11): no binding (tested: 10 ug/ml)
- binding result (C.CAP206 gp140CF.12): no binding (tested: 10 ug/ml)
- binding result (gp70 B.CaseA2 V1/V2): no binding (tested: 10 ug/ml)
- binding result (A.Q23 V1V2 tags): no binding (tested: 10 ug/ml)
- binding result (AE.97CNG2XF gp140CF): no binding (tested: 10 ug/ml)
- binding result (B.9021 gp140C): no binding (tested: 10 ug/ml)
